Data from patent US20260001961A1 (ALLIGATOR BIOSCIENCE, published 2026).
Read-outs that look alike come from different tables or passages of the source.

Key:
[1] = molecular target: T1, 5T4 expressed on CHO cells (UniProt Q13641 32-420, limits assumed); assay: flow cytometry on CHO cells expressing 5T4, anti-human IgG Fcg-PE; CHOwt cells as control
T1 construct: whole, on cells; also called CHO-5T4; 5T4 expressing CHO cells
T1 sequence (looked up): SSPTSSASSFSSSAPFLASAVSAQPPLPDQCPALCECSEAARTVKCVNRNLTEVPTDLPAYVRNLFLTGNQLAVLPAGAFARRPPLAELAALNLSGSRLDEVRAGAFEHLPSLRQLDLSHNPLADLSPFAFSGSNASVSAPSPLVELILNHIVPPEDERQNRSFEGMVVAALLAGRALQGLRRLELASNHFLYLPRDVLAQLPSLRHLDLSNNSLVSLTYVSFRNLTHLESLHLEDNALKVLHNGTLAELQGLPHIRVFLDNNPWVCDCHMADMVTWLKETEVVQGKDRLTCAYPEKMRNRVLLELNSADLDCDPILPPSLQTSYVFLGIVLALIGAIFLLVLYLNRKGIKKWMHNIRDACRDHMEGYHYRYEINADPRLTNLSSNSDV
Procedure: (§1) Binding to respective targets expressed on cells were evaluated using flow cytometry. I brief, CHO cells modified to express 5T4, B16 cells modified to express CD40 as well as the wildtype CHO and B16 cell lines were incubated with titrated concentrations of RUBY™ bsAbs. Binding of the antibodies was detected using fluorochrome-conjugated anti-human IgG and analyzed using flow cytometry.

CD40 expressed on cells [2] = molecular target: T2, CD40 expressed on cells (UniProt P25942 21-277); assay: flow cytometry on B16 cells expressing CD40, anti-human IgG Fcg-PE; B16wt cells as control
T2 construct: whole, on cells; also called B16-CD40; CD40 expressing B16 cells
Procedure: as §1

CD40 [3] = molecular target: T3, CD40 (UniProt P25942 21-193); assay: dual target ELISA with 5T4 and CD40 (one coated, the other biotinylated; which is not stated), streptavidin-HRP; signal needs both targets
T3 construct: also called biotinylated CD40; CD40 antigen

5T4 = molecular target: T4, 5T4 (UniProt Q13641 32-355); assay: as above
T4 construct: also called 5T4 antigen (dual target ELISA)
T4 sequence (looked up): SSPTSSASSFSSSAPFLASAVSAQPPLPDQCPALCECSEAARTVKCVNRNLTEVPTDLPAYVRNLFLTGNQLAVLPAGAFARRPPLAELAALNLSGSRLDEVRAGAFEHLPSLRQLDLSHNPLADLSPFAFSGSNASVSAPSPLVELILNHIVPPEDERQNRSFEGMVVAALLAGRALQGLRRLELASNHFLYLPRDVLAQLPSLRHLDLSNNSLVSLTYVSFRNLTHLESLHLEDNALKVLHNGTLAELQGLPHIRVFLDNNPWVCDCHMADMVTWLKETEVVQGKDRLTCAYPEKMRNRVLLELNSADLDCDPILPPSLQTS

CD40 [4] = molecular target: T3, CD40; assay: Octet BLI; biotinylated CD40 on streptavidin sensor;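 further: octet RED96 biolayer interferometry, 300 s association then 300 s dissociation in kinetic buffer, buffer-blank referenced, fitted with a 1:1 Langmuir binding model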
EpCAM = molecular target: T5, EpCAM (UniProt P16422 24-265); assay: Octet BLI; biotinylated EpCAM on streptavidin sensor;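 further: octet RED96 kinetics: 300 s association, then 300 s dissociation in 1x Kinetic buffer, buffer-blank referenced, Savitzky-Golay smoothed, fitted to a 1:1 Langmuir binding model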
T5 construct: also called biotinylated EpCAM
T5 sequence (looked up): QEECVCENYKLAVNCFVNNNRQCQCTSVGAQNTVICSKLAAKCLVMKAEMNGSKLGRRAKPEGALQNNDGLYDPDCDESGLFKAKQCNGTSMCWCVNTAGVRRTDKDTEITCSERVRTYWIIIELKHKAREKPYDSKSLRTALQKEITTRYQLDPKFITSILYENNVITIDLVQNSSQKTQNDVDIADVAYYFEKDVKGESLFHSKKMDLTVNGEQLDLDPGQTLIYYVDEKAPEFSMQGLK
Procedure: Kinetic measurements were performed using the Octet RED96 platform (ForteBIo). […] Association was followed for 300 seconds followed by dissociation in 1x Kinetic buffer for 300 seconds. Sensor tips were regenerated using 10 mM glycine, pH 1.7. Data generated were referenced by subtracting a parallel buffer blank, the baseline was aligned with the γ-axis, inter-step correlation by alignment against dissociation was performed and the data were smoothed by a Savitzky-Golay filter in the data analysis software (v.9.0.0.14). The processed data were fitted using a 1:1 Langmuir binding model with X2 as a measurement of fitting accuracy.
Binding affinities of all the variants were determined using Octet (Pall ForteBio).

CD40 [5] = molecular target: T3, CD40; assay: dual ELISA: CD40 coated, bsAb titrated, biotinylated EpCAM + streptavidin-HRP; signal needs both targets
Procedure: (§2) Dual ELISA Plates were coated with 0.5 μg/mL CD40 in PBS over night at 4° C. After washing in PBS/0.05% Tween 20 (PBST), the plates were blocked with PBS/2% BSA for at least 30 minutes at room temperature before being washed again. Samples serially diluted in PBS/0.5% BSA were then added and allowed to bind for at least 1 hour at room temperature. […] Dual complexed bsAb with CD40 and EpCAM were detected with HRP-labelled streptavidin. SuperSignal Pico Luminescent was used as substrate and luminescence signals were measured using Fluostar Optima.

CD40 [6] = molecular target: T3, CD40; assay: as above; remark: listed apart in the source
Procedure: as §2

CD40 [7] = molecular target: T3, CD40; assay: as above; remark: listed apart in the source
Procedure: as §2

CD40 expressed on cells [8] = molecular target: T2, CD40 expressed on cells; assay: flow cytometry on B16 cells expressing CD40, anti-human IgG Fcg-PE; B16wt cells as control; remark: listed apart in the source
Procedure: as §1

T2 sequence (P25942 21-277 limits assumed): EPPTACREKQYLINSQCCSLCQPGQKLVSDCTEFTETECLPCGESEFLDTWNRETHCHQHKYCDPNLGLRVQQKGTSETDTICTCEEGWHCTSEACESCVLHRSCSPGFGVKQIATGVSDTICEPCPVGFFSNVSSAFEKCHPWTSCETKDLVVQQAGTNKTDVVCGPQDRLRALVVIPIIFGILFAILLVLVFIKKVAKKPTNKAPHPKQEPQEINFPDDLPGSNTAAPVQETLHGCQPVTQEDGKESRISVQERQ
T3 sequence (P25942 21-193 limits assumed): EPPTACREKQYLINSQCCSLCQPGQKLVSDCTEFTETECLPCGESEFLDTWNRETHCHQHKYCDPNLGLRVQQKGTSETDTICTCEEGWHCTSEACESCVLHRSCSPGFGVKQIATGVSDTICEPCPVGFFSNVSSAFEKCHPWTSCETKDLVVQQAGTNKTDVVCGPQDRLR

B1: AC_05330 (bispecific antibody, human IgG1, lambda, L234A L235A)
heavy: not shown
light: not shown
chain: EVQLLESGGGLVQPGGSLRLSCAASGFTFSSYAMSWVREAPGKGLEWVSAISGSGGSTYYADSVKGRFTISRDNSKNTLYLQMNSLRAEDTAVYYCARYYGGYYSAWMDYWGQGTLVTVSSASTKGPSVFPLAPSSKSTSGGTAALGCLVKDYFPEPVTVSWNSGALTSGVHTFPAVLQSSGLYSLSSVVEVPSSSLGTQTYICNVNHKPSNTKVDKKVEPKSC
notes: RUBY format; H1 (role heavy) = IgG heavy chain-linker-Fab light chain, L1 (role light) = IgG light chain, H2 (role chain) = Fab heavy chain; also called parental bsAb AC_05330; CD40x5T4
[1]
  EC50 (read off the curve): ~30 nM
CD40 expressed on cells [2]
  EC50 (read off the curve): ~0.8 nM
CD40 [3]
  EC50 (read off the curve): ~0.8 nM
5T4
  EC50 (read off the curve): ~0.8 nM

B2: AC_05373 (bispecific antibody, human IgG1, lambda, L234A L235A)
heavy 1: not shown
light: not shown
heavy 2: EVQLLESGGGLVQPGGSLRLSCAASGFTFSSYAMSWVREAPGKGLEWVSAISGSGGSEYYADSVKGRFTISRDNSKNTLYLQMNSLRAEDTAVYYCARYYGGYYSAWMDYWGQGTLVTVSSASTKGPSVFPLAPSSKSTSGGTAALGCLVKDYFPEPVTVSWNSGALTSGVHTFPAVLQSSGLYSLSSVVEVPSSSLGTQTYICNVNHKPSNTKVDKKVEPKSC
notes: AC_05330 with the mutation in the VH of chain H2; also called T65E mutant of AC_05330; copies: 2 + 2 + 2
[1]
  EC50 (read off the curve): ~30 nM
CD40 expressed on cells [2]
  EC50 (read off the curve): ~0.6 nM
CD40 [3]
  EC50 (read off the curve): ~0.7 nM
5T4
  EC50 (read off the curve): ~0.7 nM

B3: AC_05293 (bispecific antibody)
heavy: not shown
light: DIQMTQSPSSLSASVGDRVTITCRASQSISSYLNWYQEKPGKAPKLLIYAASSLQSGVPSRFSGSGSGTDFTLTISSLQPEDFATYYCQQYGRNPPTFGQGTKLEIKRTVAAPSVFIFPPSDEQLKSGTASVVCYLNNFYPREAKVQWKVDNALQSGNSQESVTEQDSKDSTYSLWSTLTLSKADYEKHKVYACEVTHQGLSSPVTKSFNRGEC
chain: EVQLLEQSGAELVRPGTSVKISCKASGYAFTNYWLGWVKERPGHGLEWIGDIFPGSGNIHYNEKFKGKATLTADKSSSTAYMQLSSLTFEDSAVYFCARLRNWDEPMDYWGQGTTVTVSSASTKGPSVFPLAPSSKSTSGGTAALGCLVKDYFPEPVTVSWNSGALTSGVHTFPAVLQSSGLYSLSSVVEVPSSSLGTQTYICNVNHKPSNTKVDKKVEPKSC
notes: Chain H1 (role heavy) = IgG heavy chain-linker-Fab light chain; chain L1 (role light) = IgG light chain; chain H2 (role chain) = Fab heavy chain VH-CH1; also called wt bsAb (AC_05293); wild-type bsAb
CD40 [4]
  Kd: 0.93 nM
  koff: 0.001 s⁻¹
  kon: 1.1e+06 M⁻¹ s⁻¹
EpCAM
  Kd: 4.8 nM
  koff: 0.0012 s⁻¹
  kon: 230000 M⁻¹ s⁻¹
CD40 [5]
  EC50 (read off the curve): ~0.1 µg/mL
CD40 [6]
  EC50 (read off the curve): ~0.9 nM

B4: AM_4119 (bispecific antibody)
heavy 1: not shown
heavy 2: EVQLLEQSGAELVRPGTSVKISCKASGYAFTNYWLGWVKERPGHGLEWIGDIFPGSGNIHYNEKFKGKATLTADKSSSTAYMQLSSLTFEDSAVYFCARLRNWDEPMDYWGQGTTVTVSSASTKGPSVFPLAPSSKSTSGGTAALGCLVKDYFPEPVTVSWNSGALTSGVHTFPAVLQSSGLYSLSSVVEVPSSSLGTQTYICNVNHKPSNTKVDKKVEPKSC
light: DIQMTQSPSSLSASVGDRVTITCRASQSISSYLNWYQEKPGKAPKLLIYAASSLQSGVPSRFSGSGSGTDFTLTISSLQPEDFATYYCQQYGRNPPTFGQGTKLEIKRTVAAPSVFIFPPSDEQLKSGTASVVCYLNNFYPREAKVQWKVDNALQSGNSQESVTEQDSKDSTYSLWSTLTLSKADYEKHKVYACEVTHQGLSSPVTKSFNRGEC
notes: also called single mutant A111T of AC_05293; copies: 2 + 2 + 2
CD40 [7]
  EC50 (read off the curve): ~0.1 µg/mL

B5: AM_4121 (bispecific antibody)
heavy 1: not shown
heavy 2: EVQLLEQSGAELVRPGTSVKISCKASGYAFTNYWLGWVKERPGHGLEWIGDIFPGSGNIHYNEKFKGKATLTADKSSSTAYMQLSSLTFEDSAVYFCARLRNWDEPMDYWGQGTTVTVSSASTKGPSVFPLAPSSKSTSGGTAALGCLVKDYFPEPVTVSWNSGALTSGVHTFPAVLQSSGLYSLSSVVEVPSSSLGTQTYICNVNHKPSNTKVDKKVEPKSC
light: DIQMTQSPSSLSASVGDRVTITCRASQSISSYLNWYQEKPGKAPKLLIYAASSLQSGVPSRFSGSGSGTDFTLTISSLQPEDFATYYCQQYGRNPPTFGQGTKLEIKRTVAAPSVFIFPPSDEQLKSGTASVVCYLNNFYPREAKVQWKVDNALQSGNSQESVTEQDSKDSTYSLWSTLTLSKADYEKHKVYACEVTHQGLSSPVTKSFNRGEC
notes: also called single mutant A111W of AC_05293; copies: 2 + 2 + 2
CD40 [7]
  EC50 (read off the curve): ~0.1 µg/mL

B6: AC_05378 (bispecific antibody)
heavy 1: not shown
light: DIQMTQSPSSLSASVGDRVTITCRASQSISSYLNWYQEKPGKAPKLLIYAASSLQSGVPSRFSGSGSGTDFTLTISSLQPEDFATYYCQQYGRNPPTFGQGTKLEIKRTVAAPSVFIFPPSDEQLKSGTASVVCYLNNFYPREAKVQWKVDNALQSGNSQESVTEQDSKDSTYSLWSTLTLSKADYEKHKVYACEVTHQGLSSPVTKSFNRGEC
heavy 2: EVQLLESGGGLVQPGGSLRLSCAASGFTFSSYAMSWVREAPGKGLEWVSAISGSGGSIYYADSVKGRFTISRDNSKNTLYLQMNSLRAEDTAVYYCARYYGGYYSAWMDYWGQGTLVTVSSASTKGPSVFPLAPSSKSTSGGTAALGCLVKDYFPEPVTVSWNSGALTSGVHTFPAVLQSSGLYSLSSVVEVPSSSLGTQTYICNVNHKPSNTKVDKKVEPKSC
notes: AC_05302 with the mutation in the VH of chain H2; also called T65I mutant of AC_05302; copies: 2 + 2 + 2
CD40 expressed on cells [8]
  EC50 (read off the curve): ~1 nM

B7: AM_4120 (bispecific antibody)
heavy 1: not shown
heavy 2: EVQLLEQSGAELVRPGTSVKISCKASGYAFTNYWLGWVKERPGHGLEWIGDIFPGSGNIHYNEKFKGKATLTADKSSSTAYMQLSSLTFEDSAVYFCARLRNWDEPMDYWGQGTTVTVSSASTKGPSVFPLAPSSKSTSGGTAALGCLVKDYFPEPVTVSWNSGALTSGVHTFPAVLQSSGLYSLSSVVEVPSSSLGTQTYICNVNHKPSNTKVDKKVEPKSC
light: DIQMTQSPSSLSASVGDRVTITCRASQSISSYLNWYQEKPGKAPKLLIYAASSLQSGVPSRFSGSGSGTDFTLTISSLQPEDFATYYCQQYGRNPPTFGQGTKLEIKRTVAAPSVFIFPPSDEQLKSGTASVVCYLNNFYPREAKVQWKVDNALQSGNSQESVTEQDSKDSTYSLWSTLTLSKADYEKHKVYACEVTHQGLSSPVTKSFNRGEC
notes: also called single mutant A111V of AC_05293; copies: 2 + 2 + 2
CD40 [7]
  EC50 (read off the curve): ~0.1 µg/mL

B8: AC_05377 (bispecific antibody)
heavy 1: not shown
light: DIQMTQSPSSLSASVGDRVTITCRASQSISSYLNWYQEKPGKAPKLLIYAASSLQSGVPSRFSGSGSGTDFTLTISSLQPEDFATYYCQQYGRNPPTFGQGTKLEIKRTVAAPSVFIFPPSDEQLKSGTASVVCYLNNFYPREAKVQWKVDNALQSGNSQESVTEQDSKDSTYSLWSTLTLSKADYEKHKVYACEVTHQGLSSPVTKSFNRGEC
heavy 2: EVQLLESGGGLVQPGGSLRLSCAASGFTFSSYAMSWVREAPGKGLEWVSAISGSGGSAYYADSVKGRFTISRDNSKNTLYLQMNSLRAEDTAVYYCARYYGGYYSAWMDYWGQGTLVTVSSASTKGPSVFPLAPSSKSTSGGTAALGCLVKDYFPEPVTVSWNSGALTSGVHTFPAVLQSSGLYSLSSVVEVPSSSLGTQTYICNVNHKPSNTKVDKKVEPKSC
notes: AC_05302 with the mutation in the VH of chain H2; also called T65A mutant of AC_05302; copies: 2 + 2 + 2
CD40 expressed on cells [8]
  EC50 (read off the curve): ~1 nM

B9: 4110 (bispecific antibody)
heavy 1: not shown
heavy 2: EVQLLEQSGAELVRPGTSVKISCKASGYAFTNYWLGWVKERPGHGLEWIGDIFPGSGNIHYNEKFKGKATLTADKSSSTAYMQLSSLTFEDSAVYFCARLRNWDEPMDYWGQGTTVTVSSASTKGPSVFPLAPSSKSTSGGTAALGCLVKDYFPEPVTVSWNSGALTSGVHTFPAVLQSSGLYSLSSVVEVPSSSLGTQTYICNVNHKPSNTKVDKKVEPKSC
light: DIQMTQSPSSLSASVGDRVTITCRASQSISSYLNWYQEKPGKAPKLLIYAASSLQSGVPSRFSGSGSGTDFTLTISSLQPEDFATYYCQQYGRNPPTFGQGTKLEIKRTVAAPSVFIFPPSDEQLKSGTASVVCYLNNFYPREAKVQWKVDNALQSGNSQESVTEQDSKDSTYSLWSTLTLSKADYEKHKVYACEVTHQGLSSPVTKSFNRGEC
notes: also called single mutant I126G of AC_05293; copies: 2 + 2 + 2
CD40 [5]
  EC50 (read off the curve): ~0.1 µg/mL
